In IntAct's records for PubMed 27009418:

B1: Calsenilin (Mus musculus), Q9QXT8 (parent)
chain: MQRTKEAVKASDGNLLGDPGRIPLSKRESIKWQRPRFTRQALMRCCLIKWILSSAAPQGSDSSDSELELSTVRHQPEGLDQLQAQTKFTKKELQSLYRGFKNECPTGLVDEDTFKLIYSQFFPQGDATTYAHFLFNAFDADGNGAIHFEDFVVGLSILLRGTVHEKLKWAFNLYDINKDGCITKEEMLAIMKSIYDMMGRHTYPILREDAPLEHVERFFQKMDRNQDGVVTIDEFLETCQKDENIMNSMQLFENVI

Variants of: B1
Conditions: with psn1_human PSEN1, P49768

effect of a mutation on the interaction | Variant
decreasing interaction | MQRTKEAVKASDGNLLGDPGRIPLSKRESIKWQRPRFTRQALMRCCLIKWILSSAAPQGSDSSDSELELSTVRHQPEGLDQLQAQTKFTKKELQSLYRGFKNECPTGLVDEDTFKLIYSQFFPQGDATTYAHFLFNAFDADGNGAIHFEDFVVGLSILLRGTVHEKLKWAFNLYDINKDGCITKEQMLAIMKSIYDMMGRHTYPILREDAPLEHVERFFQKMDRNQDGVVTIDEFLETCQKDENIMNSMQLFENVI [E186Q]
decreasing interaction | MQRTKEAVKASDGNLLGDPGRIPLSKRESIKWQRPRFTRQALMRCCLIKWILSSAAPQGSDSSDSELELSTVRHQPEGLDQLQAQTKFTKKELQSLYRGFKNECPTGLVDEDTFKLIYSQFFPQGDATTYAHFLFNAFDADGNGAIHFEDFVVGLSILLRGTVHEKLKWAFNLYDINKDGCITKEEMLAIMKSIYDMMGRHTYPILREDAPLEHVERFFQKMDRNQDGVVTIDQFLETCQKDENIMNSMQLFENVI [E234Q]
